Results as given in article PMC10110553.

Tests used:
[1] = target: Hsp90 of the yeast-purified Hsp90:Cdc37:CRaf^KD complex (human) (UniProt P08238); assay: cryo-EM structure; same sample as a1; pairs inside the natively isolated Hsp90^closed:Cdc37:CRaf^KD complex, which was assembled in yeast and co-purified
[2] = target: Hsp90 of the mammalian-purified Hsp90:Cdc37:CRaf complexes (human) (UniProt P08238)
[3] = target: Hsp90 (E. coli purified; used as Hsp90^open without nucleotide or Hsp90^closed) (human) (UniProt P08238)
[4] = target: Hsp90 (E. coli purified; used as Hsp90^open without nucleotide or Hsp90^closed) (human) (UniProt P08238); assay: fluorescence correlation spectroscopy (FCS); ~20 nM Alexa488-labelled PP5 with varying concentrations of Hsp90^open; room temperature; hydrodynamic radius against Hsp90 concentration, one-site total binding fit; apparent KD
[5] = target: Hsp90 (E. coli purified; used as Hsp90^open without nucleotide or Hsp90^closed) (human) (UniProt P08238); assay: fluorescence correlation spectroscopy (FCS); ~20 nM Alexa488-labelled PP5 with varying concentrations of Hsp90^closed dimer; room temperature; hydrodynamic radius against Hsp90 concentration, one-site total binding fit; apparent KD
[6] = target: Hsp90 (E. coli purified; used as Hsp90^open without nucleotide or Hsp90^closed) (human) (UniProt P08238); assay: as above; remark: listed apart in the source
[7] = target: Hsp90 of the mammalian-purified Hsp90:Cdc37:CRaf complexes (human) (UniProt P08238); remark: listed apart in the source
[8] = target: Hsp90 (E. coli purified; used as Hsp90^open without nucleotide or Hsp90^closed) (human) (UniProt P08238); remark: listed apart in the source

Sequence of UniProt P08238 (P08238 2-724 limits assumed): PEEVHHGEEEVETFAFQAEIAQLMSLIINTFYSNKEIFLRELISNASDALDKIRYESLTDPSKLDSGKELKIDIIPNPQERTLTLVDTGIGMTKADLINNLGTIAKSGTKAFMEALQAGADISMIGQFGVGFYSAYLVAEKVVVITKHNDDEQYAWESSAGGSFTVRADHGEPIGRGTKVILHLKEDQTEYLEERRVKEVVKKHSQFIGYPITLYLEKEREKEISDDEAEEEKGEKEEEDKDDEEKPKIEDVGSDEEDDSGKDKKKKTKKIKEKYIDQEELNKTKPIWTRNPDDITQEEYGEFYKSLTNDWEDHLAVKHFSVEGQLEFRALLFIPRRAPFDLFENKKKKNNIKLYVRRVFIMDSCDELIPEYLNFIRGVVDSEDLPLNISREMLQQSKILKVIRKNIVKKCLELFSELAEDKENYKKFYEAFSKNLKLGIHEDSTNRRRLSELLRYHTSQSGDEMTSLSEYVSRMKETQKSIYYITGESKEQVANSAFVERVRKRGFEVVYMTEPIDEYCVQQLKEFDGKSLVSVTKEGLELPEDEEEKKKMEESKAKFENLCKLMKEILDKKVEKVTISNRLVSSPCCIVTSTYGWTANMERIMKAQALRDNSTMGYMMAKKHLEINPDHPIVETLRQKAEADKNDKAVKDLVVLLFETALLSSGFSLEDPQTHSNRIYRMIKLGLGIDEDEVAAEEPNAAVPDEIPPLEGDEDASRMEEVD

stoichiometry N [1] | rate of CRaf^pS338 dephosphorylation by PP5 in the Hsp90:Cdc37:CRaf complex (3 μM complex, 150 nM PP5, 25 °C) [2] | rate of Cdc37^pS13 dephosphorylation by PP5 in Hsp90^open:Cdc37^pS13 (3 μM Cdc37^pS13 and equimolar Hsp90, 750 nM PP5, 25 °C) [3] | Kd [4] | Kd [5] | Kd [6] | rate of CRaf^pS338 dephosphorylation by PP5^(αJ del) in the Hsp90:Cdc37:CRaf complex [7] | rate of Cdc37 dephosphorylation by PP5^(αJ del) while Cdc37 is bound to Hsp90 [8] | Molecule
2 |  |  |  |  |  |  |  | Hsp90 of the yeast-purified Hsp90:Cdc37:CRaf^KD complex (from UniProt P08238 1-724) (natural protein)
 | 0.19 min^−1 | 0.043 min^−1 | 0.62 µM | 0.43 µM | 230 µM |  |  | Serine/threonine-protein phosphatase 5 (PP5), wild type (enzyme, Alexa488 (maleimide dye) in the FCS assays) MAMAEGERTECAEPPRDEPPADGALKRAEELKTQANDYFKAKDYENAIKFYSQAIELNPSNAIYYGNRSLAYLRTECYGYALGDATRAIELDKKYIKGYYRRAASNMALGKFRAALRDYETVVKVKPHDKDAKMKYQECNKIVKQKAFERAIAGDEHKRSVVDSLDIESMTIEDEYSGPKLEDGKVTISFMKELMQWYKDQKKLHRKCAYQILVQVKEVLSKLSTLVETTLKETEKITVCGDTHGQFYDLLNIFELNGLPSETNPYIFNGDFVDRGSFSVEVILTLFGFKLLYPDHFHLLRGNHETDNMNQIYGFEGEVKAKYTAQMYELFSEVFEWLPLAQCINGKVLIMHGGLFSEDGVTLDDIRKIERNRQPPDSGPMCDLLWSDPQPQNGRSISKRGVSCQFGPDVTKAFLEENNLDYIIRSHEVKAEGYEVAHGGRCVTVFSAPNYCDQMGNKASYIHLQGSDLRPQFHQFTAVPHPNVKPMAYANTLLQLGMM
 |  |  | 0.12 µM | 0.13 µM |  | 0.28 min^−1 | 0.055 min⁻¹ | PP5^(αJ del) (PP5 with the last 10 residues truncated) (enzyme, Alexa488 (maleimide dye) in the FCS assays) MAMAEGERTECAEPPRDEPPADGALKRAEELKTQANDYFKAKDYENAIKFYSQAIELNPSNAIYYGNRSLAYLRTECYGYALGDATRAIELDKKYIKGYYRRAASNMALGKFRAALRDYETVVKVKPHDKDAKMKYQECNKIVKQKAFERAIAGDEHKRSVVDSLDIESMTIEDEYSGPKLEDGKVTISFMKELMQWYKDQKKLHRKCAYQILVQVKEVLSKLSTLVETTLKETEKITVCGDTHGQFYDLLNIFELNGLPSETNPYIFNGDFVDRGSFSVEVILTLFGFKLLYPDHFHLLRGNHETDNMNQIYGFEGEVKAKYTAQMYELFSEVFEWLPLAQCINGKVLIMHGGLFSEDGVTLDDIRKIERNRQPPDSGPMCDLLWSDPQPQNGRSISKRGVSCQFGPDVTKAFLEENNLDYIIRSHEVKAEGYEVAHGGRCVTVFSAPNYCDQMGNKASYIHLQGSDLRPQFHQFTAVPHPNVKPMAY
 | 0.046 min^−1 | 0.006 min^−1 |  |  | 4300 µM |  |  | PP5^R113D (enzyme, Alexa488 (maleimide dye) in the FCS assays) MAMAEGERTECAEPPRDEPPADGALKRAEELKTQANDYFKAKDYENAIKFYSQAIELNPSNAIYYGNRSLAYLRTECYGYALGDATRAIELDKKYIKGYYRRAASNMALGKFDAALRDYETVVKVKPHDKDAKMKYQECNKIVKQKAFERAIAGDEHKRSVVDSLDIESMTIEDEYSGPKLEDGKVTISFMKELMQWYKDQKKLHRKCAYQILVQVKEVLSKLSTLVETTLKETEKITVCGDTHGQFYDLLNIFELNGLPSETNPYIFNGDFVDRGSFSVEVILTLFGFKLLYPDHFHLLRGNHETDNMNQIYGFEGEVKAKYTAQMYELFSEVFEWLPLAQCINGKVLIMHGGLFSEDGVTLDDIRKIERNRQPPDSGPMCDLLWSDPQPQNGRSISKRGVSCQFGPDVTKAFLEENNLDYIIRSHEVKAEGYEVAHGGRCVTVFSAPNYCDQMGNKASYIHLQGSDLRPQFHQFTAVPHPNVKPMAYANTLLQLGMM
 | 0.05 min^−1 | 0.009 min^−1 |  |  | 2000 µM |  |  | PP5^F148K (enzyme, Alexa488 (maleimide dye) in the FCS assays) MAMAEGERTECAEPPRDEPPADGALKRAEELKTQANDYFKAKDYENAIKFYSQAIELNPSNAIYYGNRSLAYLRTECYGYALGDATRAIELDKKYIKGYYRRAASNMALGKFRAALRDYETVVKVKPHDKDAKMKYQECNKIVKQKAKERAIAGDEHKRSVVDSLDIESMTIEDEYSGPKLEDGKVTISFMKELMQWYKDQKKLHRKCAYQILVQVKEVLSKLSTLVETTLKETEKITVCGDTHGQFYDLLNIFELNGLPSETNPYIFNGDFVDRGSFSVEVILTLFGFKLLYPDHFHLLRGNHETDNMNQIYGFEGEVKAKYTAQMYELFSEVFEWLPLAQCINGKVLIMHGGLFSEDGVTLDDIRKIERNRQPPDSGPMCDLLWSDPQPQNGRSISKRGVSCQFGPDVTKAFLEENNLDYIIRSHEVKAEGYEVAHGGRCVTVFSAPNYCDQMGNKASYIHLQGSDLRPQFHQFTAVPHPNVKPMAYANTLLQLGMM
 | 0.04 min^−1 | 0.012 min^−1 |  |  | 3300 µM |  |  | PP5^R150D (enzyme, Alexa488 (maleimide dye) in the FCS assays) MAMAEGERTECAEPPRDEPPADGALKRAEELKTQANDYFKAKDYENAIKFYSQAIELNPSNAIYYGNRSLAYLRTECYGYALGDATRAIELDKKYIKGYYRRAASNMALGKFRAALRDYETVVKVKPHDKDAKMKYQECNKIVKQKAFEDAIAGDEHKRSVVDSLDIESMTIEDEYSGPKLEDGKVTISFMKELMQWYKDQKKLHRKCAYQILVQVKEVLSKLSTLVETTLKETEKITVCGDTHGQFYDLLNIFELNGLPSETNPYIFNGDFVDRGSFSVEVILTLFGFKLLYPDHFHLLRGNHETDNMNQIYGFEGEVKAKYTAQMYELFSEVFEWLPLAQCINGKVLIMHGGLFSEDGVTLDDIRKIERNRQPPDSGPMCDLLWSDPQPQNGRSISKRGVSCQFGPDVTKAFLEENNLDYIIRSHEVKAEGYEVAHGGRCVTVFSAPNYCDQMGNKASYIHLQGSDLRPQFHQFTAVPHPNVKPMAYANTLLQLGMM
